This note sets out measurements from patent US20100047228.

For the data set, the target named is delta-plasminogen.
Sequence of delta-plasminogen (chain, as listed by the source mutant): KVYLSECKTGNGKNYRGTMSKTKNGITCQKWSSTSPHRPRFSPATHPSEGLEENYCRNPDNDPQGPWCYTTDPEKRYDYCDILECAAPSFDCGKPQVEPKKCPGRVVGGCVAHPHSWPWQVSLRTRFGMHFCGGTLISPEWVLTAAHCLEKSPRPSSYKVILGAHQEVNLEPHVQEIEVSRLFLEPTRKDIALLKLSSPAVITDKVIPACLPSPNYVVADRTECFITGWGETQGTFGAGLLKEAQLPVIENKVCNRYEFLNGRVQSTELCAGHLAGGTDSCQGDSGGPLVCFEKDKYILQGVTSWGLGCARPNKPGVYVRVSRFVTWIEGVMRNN

B1: tissue Plasminogen Activator (protein)
chain: SYQVICRDEKTQMIYQQHQSWLRPVLRSNRVEYCWCNSGRAQCHSVPVKSCSEPRCFNGGTCQQALYFSDFVCQCPEGFAGKCCEIDTRATCYEDQGISYRGTWSTAESGAECTNWNSSALAQKPYSGRRPDAIRLGLGNHNYCRNPDRDSKPWCYVFKAGKYSSEFCSTPACSEGNSDCYFGNGSAYRGTHSLTESGASCLPWNSMILIGKVYTAQNPSAQALGLGKHNYCRNPDGDAKPWCHVLKNRRLTWEYCDVPSCSTCGLRQYSQPQFRIKGGLFADIASHPWQAAIFAKHRRSPGERFLCGGILISSCWILSAAHCFQERFPPHHLTVILGRTYRVVPGEEEQKFEVEKYIVHKEFDDDTYDNDIALLQLKSDSSRCAQESSVVRTVCLPPADLQLPDWTECELSGYGKHEALSPFYSERLKEAHVRLYPSSRCTSQHLLNRTVTDNMLCAGDTRSGGPQANLHDACQGDSGGPLVCLNDGRMTLVGIISWGLGCGQKDVPGVYTKVTNYLDWIRDNMRP
On to B1, for which the “conversion of one-chain delta-plasminogen into two-chain delta-plasmin (reduced SDS-PAGE)” value was “delta-plasminogen indeed can be activated by all three plasminogen activators”.
